Measurements published in US20200040057A1.

Key:
HLA-B*07 (human) [1] = test: UV peptide exchange ELISA; ++++ = yield >75%
HLA-B*07 (human) [2] = test: UV peptide exchange ELISA; +++ = yield >50

Row | Binder | peptide exchange yield (HLA-B*07 (human) [1]) [%] | peptide exchange yield (HLA-B*07 (human) [2]) [%]
1 | VPRPIFSQLYL | > 75 | –
2 | FPNEVSVVL | > 75 | –
3 | LPRIPFSTF | > 75 | –

Other lines, results leading:

Row | peptide exchange yield (HLA-B*07 (human) [1]) [%] | peptide exchange yield (HLA-B*07 (human) [2]) [%] | Binder
4 | – | 50 to 75 | VPRPTSTVGL
5 | – | 50 to 75 | LPRGLSPARQL
